# Assay results taken from patent publication US20120321699A1.
# Assays:
# A244 gD- gp120 (HIV-1) = test: SPR
# SSB autoantigen [1] = test: Athena assay, mAb 6.25 ug/ml; positive >50
# RNP autoantigen [2] = test: Athena assay, mAb 6.25 ug/ml; positive >50
# Jo 1 autoantigen [3] = test: Athena assay, mAb 6.25 ug/ml; positive >50
# centromere B autoantigen [4] = test: Athena assay, mAb 6.25 ug/ml; positive >50
# Histone autoantigen [5] = test: Athena assay, mAb 6.25 ug/ml; positive >50
# Scl 70 autoantigen [6] = test: Athena assay, mAb 6.25 ug/ml; positive >50
# Sm autoantigen [7] = test: Athena assay, mAb 6.25 ug/ml; positive >50
# SSA autoantigen [8] = test: Athena assay, mAb 6.25 ug/ml; positive >50
# [9] = biological target: Env of HIV-1 JRFL.E168K (HIV-1); test: cell-based or functional assay
# [10] = biological target: Env of HIV-1 Q23.17.N160K (HIV-1); test: cell-based or functional assay
# [11] = biological target: Env of HIV-1 7165.18.N160K (HIV-1); test: cell-based or functional assay
# [12] = biological target: Env of HIV-1 clade A isolate Q23.17 (HIV-1); test: cell-based or functional assay
# [13] = biological target: Env of HIV-1 JRCSF.N160K (HIV-1) (UniProt P20871); test: cell-based or functional assay
# [14] = biological target: Env of HIV-1 JRFL.N160K.E168K (HIV-1); test: cell-based or functional assay
# [15] = biological target: Env of HIV-1 clade B isolate JRFL (virus) (HIV-1); test: cell-based or functional assay
# [16] = biological target: Env of HIV-1 clade B isolate 7165.18 (HIV-1); test: cell-based or functional assay
# SSB autoantigen [17] = test: Athena assay, mAb 50 ug/ml; positive >50
# RNP autoantigen [18] = test: Athena assay, mAb 50 ug/ml; positive >50
# Jo 1 autoantigen [19] = test: Athena assay, mAb 50 ug/ml; positive >50
# centromere B autoantigen [20] = test: Athena assay, mAb 50 ug/ml; positive >50
# Histone autoantigen [21] = test: Athena assay, mAb 50 ug/ml; positive >50
# Scl 70 autoantigen [22] = test: Athena assay, mAb 50 ug/ml; positive >50
# Sm autoantigen [23] = test: Athena assay, mAb 50 ug/ml; positive >50
# SSA autoantigen [24] = test: Athena assay, mAb 50 ug/ml; positive >50
# SSB autoantigen [25] = test: Athena assay, mAb 25 ug/ml; positive >50
# RNP autoantigen [26] = test: Athena assay, mAb 25 ug/ml; positive >50
# Jo 1 autoantigen [27] = test: Athena assay, mAb 25 ug/ml; positive >50
# centromere B autoantigen [28] = test: Athena assay, mAb 25 ug/ml; positive >50
# Histone autoantigen [29] = test: Athena assay, mAb 25 ug/ml; positive >50
# Scl 70 autoantigen [30] = test: Athena assay, mAb 25 ug/ml; positive >50
# Sm autoantigen [31] = test: Athena assay, mAb 25 ug/ml; positive >50
# SSA autoantigen [32] = test: Athena assay, mAb 25 ug/ml; positive >50
# SSB autoantigen [33] = test: Athena assay, mAb 12.5 ug/ml; positive >50
# RNP autoantigen [34] = test: Athena assay, mAb 12.5 ug/ml; positive >50
# Jo 1 autoantigen [35] = test: Athena assay, mAb 12.5 ug/ml; positive >50
# centromere B autoantigen [36] = test: Athena assay, mAb 12.5 ug/ml; positive >50
# Histone autoantigen [37] = test: Athena assay, mAb 12.5 ug/ml; positive >50
# Scl 70 autoantigen [38] = test: Athena assay, mAb 12.5 ug/ml; positive >50
# Sm autoantigen [39] = test: Athena assay, mAb 12.5 ug/ml; positive >50
# SSA autoantigen [40] = test: Athena assay, mAb 12.5 ug/ml; positive >50
# [41] = biological target: Influenza HA (Wisconsin) (influenza virus); test: Luminex assay, antibody 50 µg/ml
# [42] = biological target: HV00046 (902114 B2 140C) (HIV-1); test: ELISA on monomeric envelope
# CM 243 gp120 (HIV-1) = test: ELISA on monomeric envelope
substance,measurement,setting,value
CH01 (antibody),Kd,A244 gD- gp120 (HIV-1),0.34 µM
same,Autoreactivity (Athena),SSB autoantigen [1],5.5
same,Autoreactivity (Athena),RNP autoantigen [2],4
same,Autoreactivity (Athena),Jo 1 autoantigen [3],2
same,Autoreactivity (Athena),centromere B autoantigen [4],7
same,Autoreactivity (Athena),Histone autoantigen [5],10
same,Autoreactivity (Athena),Scl 70 autoantigen [6],1.5
same,Autoreactivity (Athena),Sm autoantigen [7],2.5
same,Autoreactivity (Athena),SSA autoantigen [8],5.5
same,IC50 ug/ml (virus neutralization),[9],0.044 µg/mL
same,IC80 ug/ml (virus neutralization),[9],0.382 µg/mL
same,IC50 ug/ml (virus neutralization),[10],> 50 µg/mL
same,IC80 ug/ml (virus neutralization),[10],> 50 µg/mL
same,IC50 ug/ml (virus neutralization),[11],> 50 µg/mL
same,IC80 ug/ml (virus neutralization),[11],> 50 µg/mL
same,IC50 ug/ml (virus neutralization),[12],0.014 µg/mL
same,IC80 ug/ml (virus neutralization),[12],0.035 µg/mL
same,IC50 ug/ml (virus neutralization),[13],> 50 µg/mL
same,IC80 ug/ml (virus neutralization),[13],> 50 µg/mL
same,IC50 ug/ml (virus neutralization),[14],> 50 µg/mL
same,IC80 ug/ml (virus neutralization),[14],> 50 µg/mL
same,IC50 ug/ml (virus neutralization),[15],> 50 µg/mL
same,IC80 ug/ml (virus neutralization),[15],> 50 µg/mL
same,IC50 ug/ml (virus neutralization),[16],5.82 µg/mL
same,IC80 ug/ml (virus neutralization),[16],> 50 µg/mL
same,Autoreactivity (Athena),SSB autoantigen [17],5.5
same,Autoreactivity (Athena),RNP autoantigen [18],8
same,Autoreactivity (Athena),Jo 1 autoantigen [19],3.5
same,Autoreactivity (Athena),centromere B autoantigen [20],22
same,Autoreactivity (Athena),Histone autoantigen [21],26
same,Autoreactivity (Athena),Scl 70 autoantigen [22],4
same,Autoreactivity (Athena),Sm autoantigen [23],4
same,Autoreactivity (Athena),SSA autoantigen [24],8
same,Autoreactivity (Athena),SSB autoantigen [25],5.5
same,Autoreactivity (Athena),RNP autoantigen [26],5.5
same,Autoreactivity (Athena),Jo 1 autoantigen [27],2.5
same,Autoreactivity (Athena),centromere B autoantigen [28],14
same,Autoreactivity (Athena),Histone autoantigen [29],17.5
same,Autoreactivity (Athena),Scl 70 autoantigen [30],3
same,Autoreactivity (Athena),Sm autoantigen [31],4
same,Autoreactivity (Athena),SSA autoantigen [32],6.5
same,Autoreactivity (Athena),SSB autoantigen [33],5
same,Autoreactivity (Athena),RNP autoantigen [34],4.5
same,Autoreactivity (Athena),Jo 1 autoantigen [35],2
same,Autoreactivity (Athena),centromere B autoantigen [36],10
same,Autoreactivity (Athena),Histone autoantigen [37],13.5
same,Autoreactivity (Athena),Scl 70 autoantigen [38],2
same,Autoreactivity (Athena),Sm autoantigen [39],3
same,Autoreactivity (Athena),SSA autoantigen [40],5
same,background substracted RFUs,[41],0 RFU
same,EC50,[42],63.2 µM
same,EC50,CM 243 gp120 (HIV-1),12.7 µM
